Data on one molecule can be found in patent US20240141007A1.

Several values for one entry are separate records, joined by “and”; a condition that tells them apart may be missing. Identical values can stand only once.

Experiment [1] deals with UCM22. The experiment can be described thus: cell-based or functional assay.
Experiment [2] addresses UCM23. As to the kind of experiment: cell-based or functional assay.

B1: MMP-7 (enzyme, UniProt P09237 95-267, looked up)
chain: YSLFPNSPKWTSKVVTYRIVSYTRDLPHITVDRLVSKALNMWGKEIPLHFRKVVWGTADIMIGFARGAHGDSYPFDGPGNTLAHAFAPGTGLGGDAHFDEDERWTDGSSLGINFLYAATHELGHSLGMGHSSDPNAVMYPTYGNGDPQNFKLSQDDIKGIQKLYGKRSNSRKK
With B1, the Est. kcat/KM (cleavage efficiency) is 1800 M^-1S^-1 and 2100 M^-1S^-1 in experiment [1]; 2000 M^-1S^-1 and 2100 M^-1S^-1 in experiment [2].
